Assay [1] concerns the target T1, monkey LAG-3 on cells (HEK293-cLAG-3 stable cell line) (monkey, UniProt P18627 24-525 (human entry)).
T1 construct: Full-length monkey (Chinese monkey) LAG-3 gene expressed on HEK293 cells
T1 chain: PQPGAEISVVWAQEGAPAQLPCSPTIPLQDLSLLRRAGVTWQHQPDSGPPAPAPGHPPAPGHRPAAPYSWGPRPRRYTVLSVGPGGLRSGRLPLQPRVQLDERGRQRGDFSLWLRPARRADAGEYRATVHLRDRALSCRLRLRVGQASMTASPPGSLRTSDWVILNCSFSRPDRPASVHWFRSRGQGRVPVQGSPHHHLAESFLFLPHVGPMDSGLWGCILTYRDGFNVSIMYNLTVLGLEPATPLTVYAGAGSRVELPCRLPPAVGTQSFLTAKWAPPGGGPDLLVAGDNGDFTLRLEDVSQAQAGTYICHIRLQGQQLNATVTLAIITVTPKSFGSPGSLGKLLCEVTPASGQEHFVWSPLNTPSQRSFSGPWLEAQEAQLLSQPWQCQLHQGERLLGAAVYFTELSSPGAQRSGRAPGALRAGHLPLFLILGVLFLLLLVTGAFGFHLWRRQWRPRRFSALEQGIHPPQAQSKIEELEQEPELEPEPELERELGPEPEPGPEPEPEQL
The experiment in a line: FACS, HEK293-cLAG-3, antibody 0.000 nM. An excerpt: (§1) The pIRES plasmid with the monkey-derived full-length gene was transfected into the HEK293 cell line to construct a HEK293 stable cell line containing monkey LAG-3 (herein referred to as HEK293-cLAG-3 stable cell line). The HEK293-hLAG-3 stable cell line and HEK293-cLAG-3 stable cell line were expanded in a T-75 cell culture flask to a 90% confluence. The medium was aspirated, and the cells were washed with HBSS (Hanks' Balanced Salt Solution) 1-2 times, then treated with a enzyme-free cell dissociation fluid (Versene solution: Life technology) and the cells were collected. The cells were washed with HBSS buffer for 1-2 times. After counted, the cells were diluted with HBSS to 1-2×10⁶ cells per ml, added with 1% goat serum blocking solution, incubated on ice for 20-30 minutes, and then washed with HBSS for 2 times by centrifugation. The collected cells were suspended in the FACS buffer (HBSS+1% BSA) to 2×10⁶ cells/ml, added as 100 microliters per well to a 96-well FACS reaction plate, added with 100 microliters per well of the antibody sample to be tested, incubated on ice for 1-2 hours. The plate was washed twice with the FACS buffer by centrifugation, added with 100 microliters of fluorescent (Alexa 488)-labeled secondary antibodies per well, and incubated on ice for 0.5-1.0 hours. The plate was washed 2-3 times with FACS buffer by centrifugation, added with 100 μl fixative solution (4% Paraformaldehyde) per well to suspend the cells. 5-10 minutes later, it was washed 1-2 times with FACS buffer by centrifugation. The cells were suspended with 100 microliters of FACS buffer, FACS (FACSCalibur, BD) was used for detection and the results were analyzed.

For assay [2], the target named is T2, hFc tagged monkey LAG-3 protein (cLAG-3-hFc protein) (monkey; human).
T2 construct: Made in HEK293 cells; also called monkey LAG-3 extracellular domain protein; not shown: human IgG Fc fragment (hFc) of the pCpC vector
T2 chain: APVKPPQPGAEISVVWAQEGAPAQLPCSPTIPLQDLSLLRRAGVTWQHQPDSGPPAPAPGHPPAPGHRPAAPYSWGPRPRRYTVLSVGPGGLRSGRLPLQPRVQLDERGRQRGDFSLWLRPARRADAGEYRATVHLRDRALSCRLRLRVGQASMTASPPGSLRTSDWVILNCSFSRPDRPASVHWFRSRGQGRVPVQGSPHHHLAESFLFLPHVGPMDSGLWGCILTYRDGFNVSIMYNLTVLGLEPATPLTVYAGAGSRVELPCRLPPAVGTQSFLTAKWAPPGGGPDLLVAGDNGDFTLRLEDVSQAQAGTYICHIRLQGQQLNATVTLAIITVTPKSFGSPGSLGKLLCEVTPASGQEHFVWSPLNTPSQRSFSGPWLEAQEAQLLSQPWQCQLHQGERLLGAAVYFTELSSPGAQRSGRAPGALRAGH
The experiment in a line: ELISA, cLAG-3-hFc coated; 0.0067 nM. On the procedure: (§2) The plate was sealed with plastic film and incubated overnight at 4° C. The plate was washed 2 times with the plate washing solution (PBS+0.01% Tween20) on the next day, and added with the blocking solution (PBS+0.01% Tween20+1% BSA) and blocked at room temperature for 1-2 hours. The blocking solution was poured out, and the plate was added with 50-100 μl of the antibody sample to be tested to each well, incubated at 37° C. for 1-2 hours, and washed 2-3 times with a plate washing solution (PBS+0.01% Tween20). HRP (horseradish peroxidase) labeled secondary antibody was added, and the plate was incubated at 37° C. for 1-2 hours, and washed 2-3 times with a plate washing solution (PBS+0.01% Tween20). 100 μl of TMB substrate was added to each well. After incubated at room temperature for 15-30 minutes, the plate was added with 100 μl of stop solution (1.0N HCl) to each well.

The target of assay [3] is T2, hFc tagged monkey LAG-3 protein …. Nature of the assay: ELISA, cLAG-3-hFc coated; 0.0007 nM. On the procedure:
as §2

Assay [4] shares this target. The experiment in a line: ELISA, cLAG-3-hFc coated; 66.6670 nM. The procedure: as §2
The target of assay [5] is T3, human LAG-3 (full length, on the cell surface) (human, UniProt P18627 23-525).
T3 construct: Full-length human LAG-3 expressed on cells; also called HEK293-hLAG-3; HEK293 cells transfected with LAG-3 gene
T3 sequence: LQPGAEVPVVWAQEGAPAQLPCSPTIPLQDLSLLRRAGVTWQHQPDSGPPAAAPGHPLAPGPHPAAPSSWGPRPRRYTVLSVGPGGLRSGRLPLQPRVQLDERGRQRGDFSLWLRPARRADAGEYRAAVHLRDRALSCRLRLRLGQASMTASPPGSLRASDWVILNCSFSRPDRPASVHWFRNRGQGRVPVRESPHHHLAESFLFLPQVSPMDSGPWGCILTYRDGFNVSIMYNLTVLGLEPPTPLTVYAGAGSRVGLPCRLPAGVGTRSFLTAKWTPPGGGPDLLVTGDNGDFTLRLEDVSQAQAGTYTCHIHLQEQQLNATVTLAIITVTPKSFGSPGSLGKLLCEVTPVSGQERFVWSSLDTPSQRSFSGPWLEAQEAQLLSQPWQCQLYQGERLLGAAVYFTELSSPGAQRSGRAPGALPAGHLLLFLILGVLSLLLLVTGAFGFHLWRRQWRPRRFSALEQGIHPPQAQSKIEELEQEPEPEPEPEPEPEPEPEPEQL
The experiment in a line: FACS, HEK293-hLAG-3; 8.000 nM.
Text: as §1

B1: 556F6B8 mouse-human chimeric antibody (antibody, V domains shown)
VH: RVQLKQSGPGLVQPSQSLSITCTVSGFSLIKYGVHWVRQSPGEGLEWLGVIWRGGITDYNAAFMSRLSITKDNSKSQVFFKMNSLQADDTAIYYCAKWDGPLAMDYWGQGTSVTVSS
VL: DIVMTQSHKFLSTSVGDRVSITCKASQDVGTTVAWYQQKPGQSPKLLIYWASTRHTGVPDRFTGSGSGTDFTLTISNVQSEDLADYFCQQYSSYPYTFGGGTKLEIK
notes: also called mAb123-556F6B8; 556F8B8
As to B1, the Mean fluorescence intensity in assay [1] was 3.1.

B2: 556F6B8 (LAG-3 mouse-human chimeric antibody) (antibody, V domains shown)
VH: RVQLKQSGPGLVQPSQSLSITCTVSGFSLIKYGVHWVRQSPGEGLEWLGVIWRGGITDYNAAFMSRLSITKDNSKSQVFFKMNSLQADDTAIYYCAKWDGPLAMDYWGQGTSVTVSS
VL: DIVMTQSHKFLSTSVGDRVSITCKASQDVGTTVAWYQQKPGQSPKLLIYWASTRHTGVPDRFTGSGSGTDFTLTISNVQSEDLADYFCQQYSSYPYTFGGGTKLEIK
notes: also called 556F8B8
As for B2, the OD450 in assay [2] amounted to 0.46 OD450; in assay [3], 0.21 OD450; in assay [4], 3.72 OD450.

B3: 556F6B8 (mouse antibody purified from hybridoma) (antibody, V domains shown)
VH: RVQLKQSGPGLVQPSQSLSITCTVSGFSLIKYGVHWVRQSPGEGLEWLGVIWRGGITDYNAAFMSRLSITKDNSKSQVFFKMNSLQADDTAIYYCAKWDGPLAMDYWGQGTSVTVSS
VL: DIVMTQSHKFLSTSVGDRVSITCKASQDVGTTVAWYQQKPGQSPKLLIYWASTRHTGVPDRFTGSGSGTDFTLTISNVQSEDLADYFCQQYSSYPYTFGGGTKLEIK
notes: also called mAb123-556F6B8
Consider B3, for which the Mean fluorescence intensity in assay [5] came out at 74.9 MFI.

B4: 405B8H3 (mouse antibody purified from hybridoma) (antibody, V domains shown)
VH: QVQLQQSGAELVRPGASVTLSCKASGYTFTDYEMHWVKQTPVHGLEWIGATDPETGNSAYNQKFKGKAIMTADKSSSTAYMELRSLTSEDSAVYYCISTGWNDWGQGTSLTVSS
VL: DIKMTQSPSSMYASLGERVTITCKASQDINSYLSWFQQKPGKSPKTLIYRADRLLDGVPSRFSGSGSGQDYSLTISSLEYGDMGIYYCLQYDEFPYTFGGGTKLEIK
notes: also called mAb103-405B8H3; 405B81-13
In the case of B4, the Mean fluorescence intensity in assay [5] was 252 MFI.

B5: 105F1E10 (LAG-3 mouse-human chimeric antibody) (antibody, V domains shown)
VH: EVQLQQSGPELVKPGASVKMSCRASGYTFTDFKMHWMKQSHGKSLEWIGYIAPNNGGTAYNQKFRGKATLTVNESSNTAYMELRSLTSEDSAVYYCVDWDDVDYWGQGTTLTVSS
VL: DIKMTQSPSSMYASLGERVTITCKASQDINSYLSWFQQKSGKSPKTLIYRANRLVDGVPSRFSGSGSGQDYSLTISSLEYEDMGIYYCLQYVEFPLTFGAGTKLELK
As to B5, the OD450 in assay [2] stood at 0.26 OD450; in assay [3], 0.16 OD450; in assay [4], 3.59 OD450.

B6: 105F1E10 (mouse antibody purified from hybridoma) (antibody, V domains shown)
VH: EVQLQQSGPELVKPGASVKMSCRASGYTFTDFKMHWMKQSHGKSLEWIGYIAPNNGGTAYNQKFRGKATLTVNESSNTAYMELRSLTSEDSAVYYCVDWDDVDYWGQGTTLTVSS
VL: DIKMTQSPSSMYASLGERVTITCKASQDINSYLSWFQQKSGKSPKTLIYRANRLVDGVPSRFSGSGSGQDYSLTISSLEYEDMGIYYCLQYVEFPLTFGAGTKLELK
notes: also called mAb009-105F1E10
In assay [5], B6 gave a Mean fluorescence intensity of 235 MFI.

B7: 405B8H3 (LAG-3 mouse-human chimeric antibody) (antibody, V domains shown)
VH: QVQLQQSGAELVRPGASVTLSCKASGYTFTDYEMHWVKQTPVHGLEWIGATDPETGNSAYNQKFKGKAIMTADKSSSTAYMELRSLTSEDSAVYYCISTGWNDWGQGTSLTVSS
VL: DIKMTQSPSSMYASLGERVTITCKASQDINSYLSWFQQKPGKSPKTLIYRADRLLDGVPSRFSGSGSGQDYSLTISSLEYGDMGIYYCLQYDEFPYTFGGGTKLEIK
notes: also called mouse-human chimeric antibody 405B8H3
B7: the OD450 in assay [2] stood at 0.46 OD450; in assay [3], 0.21 OD450; in assay [4], 3.46 OD450.

B8: 409D4E10 (LAG-3 mouse-human chimeric antibody) (antibody, V domains shown)
VH: QVQLQQSGAELVRPGASVTLSCKASGNTFTDYEMHWVKQTPVHGLEWIGATDPETDNTAYNQKFKGKAILTTDKSSSTAYMELRSLTSEDSAVYYCITSGWNDWGQGTSLTVSS
VL: DIKMTQSPSSMYASLGERVTITCKASQDINSYLSWFQQKPGKSPKTLIYRANRLLDGVPSRFSGSGSGQDYSLTISSLEYEDMGIYYCLQYNEFPYTFGGGTKLEIK
B8: the OD450 amounted to 0.64 OD450 in assay [2], 0.27 OD450 in assay [3] and 3.77 OD450 in assay [4].

B9: 409B11E12 (LAG-3 mouse-human chimeric antibody) (antibody, V domains shown)
VH: QVQLQQSGAELVRPGASVTLSCKASGYTFTDYEMHWVKQTTVHGLEWIGATDPETSYSAYNQKFKGKAILTADKSSSTAYMELRSLTSEDSAVYYCIATGWNDWGQGTSLTVSS
VL: DLKMTQSPSSMYASLGERVTITCKASQDINSYLSWFQQKPGKSPKTLIYRANRLLDGVPSRFSGSGSGQDYSLTISSLEYEDMGIYYCLQYDEFPYTFGGGTKLEIK
With B9, the OD450 was determined as 0.39 OD450 in assay [2], 0.17 OD450 in assay [3] and 3.44 OD450 in assay [4].

B10: 409B11E12 (mouse antibody purified from hybridoma) (antibody, V domains shown)
VH: QVQLQQSGAELVRPGASVTLSCKASGYTFTDYEMHWVKQTTVHGLEWIGATDPETSYSAYNQKFKGKAILTADKSSSTAYMELRSLTSEDSAVYYCIATGWNDWGQGTSLTVSS
VL: DLKMTQSPSSMYASLGERVTITCKASQDINSYLSWFQQKPGKSPKTLIYRANRLLDGVPSRFSGSGSGQDYSLTISSLEYEDMGIYYCLQYDEFPYTFGGGTKLEIK
notes: also called mAb104-409B11E12
In assay [5], B10 registered a Mean fluorescence intensity of 112 MFI.

B11: 409D4E10 (mouse antibody purified from hybridoma) (antibody, V domains shown)
VH: QVQLQQSGAELVRPGASVTLSCKASGNTFTDYEMHWVKQTPVHGLEWIGATDPETDNTAYNQKFKGKAILTTDKSSSTAYMELRSLTSEDSAVYYCITSGWNDWGQGTSLTVSS
VL: DIKMTQSPSSMYASLGERVTITCKASQDINSYLSWFQQKPGKSPKTLIYRANRLLDGVPSRFSGSGSGQDYSLTISSLEYEDMGIYYCLQYNEFPYTFGGGTKLEIK
notes: also called mAb112-409D4E10
In turn, B11 had a Mean fluorescence intensity in assay [5] of 123 MFI.
